Assay results taken from US20210324057A1.

Legend:
Experiment in all cases: GST pull-down, LC-MS/MS; score of protein identification
ATP synthase, β chain = biological target: ATP synthase, β chain
ATP synthase, O subunit = biological target: ATP synthase, O subunit
[1] = biological target: Electron transfer flavoprotein, α subunit
Electron transfer flavoprotein, α subunit, sequence (Q99LC5 20-333): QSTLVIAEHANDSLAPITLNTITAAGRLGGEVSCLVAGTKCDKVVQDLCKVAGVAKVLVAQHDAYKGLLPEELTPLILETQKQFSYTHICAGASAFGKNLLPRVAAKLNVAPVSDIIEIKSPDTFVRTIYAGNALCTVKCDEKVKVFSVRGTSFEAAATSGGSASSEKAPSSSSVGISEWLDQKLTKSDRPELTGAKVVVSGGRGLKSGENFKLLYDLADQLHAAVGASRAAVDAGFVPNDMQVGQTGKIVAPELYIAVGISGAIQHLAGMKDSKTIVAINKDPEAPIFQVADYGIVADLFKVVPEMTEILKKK

ATP synthase, O subunit, sequence (Q9DB20 24-213): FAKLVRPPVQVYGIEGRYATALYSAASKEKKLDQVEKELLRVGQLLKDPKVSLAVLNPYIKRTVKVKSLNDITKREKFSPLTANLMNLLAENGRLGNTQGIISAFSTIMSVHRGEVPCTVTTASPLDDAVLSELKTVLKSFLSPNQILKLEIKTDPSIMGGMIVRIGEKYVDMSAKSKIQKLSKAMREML
ATP synthase, β chain, sequence (P56480 47-529): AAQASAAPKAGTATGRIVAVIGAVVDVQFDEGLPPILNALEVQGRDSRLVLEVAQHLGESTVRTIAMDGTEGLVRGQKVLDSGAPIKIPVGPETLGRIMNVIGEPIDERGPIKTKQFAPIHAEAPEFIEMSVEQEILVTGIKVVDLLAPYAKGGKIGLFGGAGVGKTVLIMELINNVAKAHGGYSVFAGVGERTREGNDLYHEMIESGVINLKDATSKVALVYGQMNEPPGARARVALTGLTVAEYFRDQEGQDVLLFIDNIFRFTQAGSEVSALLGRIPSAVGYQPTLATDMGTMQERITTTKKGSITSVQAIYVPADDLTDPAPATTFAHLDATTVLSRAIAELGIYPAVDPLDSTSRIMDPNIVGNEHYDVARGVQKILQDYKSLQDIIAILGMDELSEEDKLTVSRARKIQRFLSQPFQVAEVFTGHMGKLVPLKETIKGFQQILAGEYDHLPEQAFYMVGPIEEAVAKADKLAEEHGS

- Unused Score (ATP synthase, β chain): 5.94
- Unused Score (ATP synthase, O subunit): 8.44
- Unused Score [1]: 11.6
Substance: GST-LRRC8A (fusion protein comprised of the leucine rich C-terminus of LRRC8A and GST)
